Test results taken from patent publication US20200079833A1 (AstraZeneca / MedImmune, published 2020).
Starred links: 1 amine or outer side, 2 acyl side, 3 side chain; linkers in the order of their positions; H or OH if unused. Non-standard residues stand in square brackets, D forms with d. Groups on a side chain read outwards from the residue. No end group written: not given here. *: point of attachment. γGlu = O=C(O)[C@H](CCC(=O)[*:2])N[*:1]; Palmitoyl = CCCCCCCCCCCCCCCC(=O)*; αMeF = C[C@](N)(Cc1ccccc1)C(=O)O; αMeK = C[C@](N)(CCCCN)C(=O)O; αMeS = C[C@](N)(CO)C(=O)O; Aib = CC(C)(N)C(=O)O

T1: glucose-dependent insulinotropic peptide (gastric inhibitory polypeptide) receptor (GIPR) (human, UniProt P48546 22-466)
T1 sequence (looked up): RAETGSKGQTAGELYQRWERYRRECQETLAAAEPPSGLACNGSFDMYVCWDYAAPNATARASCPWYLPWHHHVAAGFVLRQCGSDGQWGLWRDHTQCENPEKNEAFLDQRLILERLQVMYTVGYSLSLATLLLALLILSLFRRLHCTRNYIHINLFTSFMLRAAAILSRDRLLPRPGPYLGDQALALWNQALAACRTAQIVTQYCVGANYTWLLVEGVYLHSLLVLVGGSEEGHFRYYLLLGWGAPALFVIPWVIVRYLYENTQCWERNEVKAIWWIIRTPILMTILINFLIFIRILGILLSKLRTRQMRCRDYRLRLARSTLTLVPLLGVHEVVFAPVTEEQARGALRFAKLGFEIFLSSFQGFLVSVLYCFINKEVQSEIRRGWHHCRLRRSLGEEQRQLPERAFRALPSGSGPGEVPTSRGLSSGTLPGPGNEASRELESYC

B1: SEQ ID NO 91 (peptide)
peptide: H[Aib]EGS[αMeF]TSK([γGlu-Palmitoyl])V[αMeS]S[αMeF]LEGEAA[αMeK]E[αMeF]IA[αMeF]VV[αMeK]GG-NH2
modifications: N-terminus assumed
SMILES: CCCCCCCCCCCCCCCC(=O)N[C@@H](CCC(=O)NCCCC[C@H](NC(=O)[C@H](CO)NC(=O)[C@@H](NC(=O)[C@](C)(Cc1ccccc1)NC(=O)[C@H](CO)NC(=O)CNC(=O)[C@H](CCC(=O)O)NC(=O)C(C)(C)NC(=O)[C@@H](N)Cc1c[nH]cn1)[C@@H](C)O)C(=O)N[C@H](C(=O)N[C@@](C)(CO)C(=O)N[C@@H](CO)C(=O)N[C@@](C)(Cc1ccccc1)C(=O)N[C@@H](CC(C)C)C(=O)N[C@@H](CCC(=O)O)C(=O)NCC(=O)N[C@@H](CCC(=O)O)C(=O)N[C@@H](C)C(=O)N[C@@H](C)C(=O)N[C@@](C)(CCCCN)C(=O)N[C@@H](CCC(=O)O)C(=O)N[C@@](C)(Cc1ccccc1)C(=O)N[C@H](C(=O)N[C@@H](C)C(=O)N[C@@](C)(Cc1ccccc1)C(=O)N[C@H](C(=O)N[C@H](C(=O)N[C@@](C)(CCCCN)C(=O)NCC(=O)NCC(N)=O)C(C)C)C(C)C)[C@@H](C)CC)C(C)C)C(=O)O
B2: SEQ ID NO 93 (peptide)
peptide: H[Aib]EGS[αMeF]K([γGlu-Palmitoyl])SDV[αMeS]S[αMeF]LEGEAA[αMeK]E[αMeF]IA[αMeF]VV[αMeK]GG-NH2
modifications: N-terminus assumed
SMILES: CCCCCCCCCCCCCCCC(=O)N[C@@H](CCC(=O)NCCCC[C@H](NC(=O)[C@](C)(Cc1ccccc1)NC(=O)[C@H](CO)NC(=O)CNC(=O)[C@H](CCC(=O)O)NC(=O)C(C)(C)NC(=O)[C@@H](N)Cc1c[nH]cn1)C(=O)N[C@@H](CO)C(=O)N[C@@H](CC(=O)O)C(=O)N[C@H](C(=O)N[C@@](C)(CO)C(=O)N[C@@H](CO)C(=O)N[C@@](C)(Cc1ccccc1)C(=O)N[C@@H](CC(C)C)C(=O)N[C@@H](CCC(=O)O)C(=O)NCC(=O)N[C@@H](CCC(=O)O)C(=O)N[C@@H](C)C(=O)N[C@@H](C)C(=O)N[C@@](C)(CCCCN)C(=O)N[C@@H](CCC(=O)O)C(=O)N[C@@](C)(Cc1ccccc1)C(=O)N[C@H](C(=O)N[C@@H](C)C(=O)N[C@@](C)(Cc1ccccc1)C(=O)N[C@H](C(=O)N[C@H](C(=O)N[C@@](C)(CCCCN)C(=O)NCC(=O)NCC(N)=O)C(C)C)C(C)C)[C@@H](C)CC)C(C)C)C(=O)O
B3: SEQ ID NO 94 (peptide)
peptide: H[Aib]EGSK([γGlu-Palmitoyl])TSDV[αMeS]S[αMeF]LEGEAA[αMeK]E[αMeF]IA[αMeF]VV[αMeK]GG-NH2
modifications: N-terminus assumed
SMILES: CCCCCCCCCCCCCCCC(=O)N[C@@H](CCC(=O)NCCCC[C@H](NC(=O)[C@H](CO)NC(=O)CNC(=O)[C@H](CCC(=O)O)NC(=O)C(C)(C)NC(=O)[C@@H](N)Cc1c[nH]cn1)C(=O)N[C@H](C(=O)N[C@@H](CO)C(=O)N[C@@H](CC(=O)O)C(=O)N[C@H](C(=O)N[C@@](C)(CO)C(=O)N[C@@H](CO)C(=O)N[C@@](C)(Cc1ccccc1)C(=O)N[C@@H](CC(C)C)C(=O)N[C@@H](CCC(=O)O)C(=O)NCC(=O)N[C@@H](CCC(=O)O)C(=O)N[C@@H](C)C(=O)N[C@@H](C)C(=O)N[C@@](C)(CCCCN)C(=O)N[C@@H](CCC(=O)O)C(=O)N[C@@](C)(Cc1ccccc1)C(=O)N[C@H](C(=O)N[C@@H](C)C(=O)N[C@@](C)(Cc1ccccc1)C(=O)N[C@H](C(=O)N[C@H](C(=O)N[C@@](C)(CCCCN)C(=O)NCC(=O)NCC(N)=O)C(C)C)C(C)C)[C@@H](C)CC)C(C)C)[C@@H](C)O)C(=O)O
B4: SEQ ID NO 95 (peptide)
peptide: H[Aib]EGK([γGlu-Palmitoyl])[αMeF]TSDV[αMeS]S[αMeF]LEGEAA[αMeK]E[αMeF]IA[αMeF]VV[αMeK]GG-NH2
modifications: N-terminus assumed
SMILES: CCCCCCCCCCCCCCCC(=O)N[C@@H](CCC(=O)NCCCC[C@H](NC(=O)CNC(=O)[C@H](CCC(=O)O)NC(=O)C(C)(C)NC(=O)[C@@H](N)Cc1c[nH]cn1)C(=O)N[C@@](C)(Cc1ccccc1)C(=O)N[C@H](C(=O)N[C@@H](CO)C(=O)N[C@@H](CC(=O)O)C(=O)N[C@H](C(=O)N[C@@](C)(CO)C(=O)N[C@@H](CO)C(=O)N[C@@](C)(Cc1ccccc1)C(=O)N[C@@H](CC(C)C)C(=O)N[C@@H](CCC(=O)O)C(=O)NCC(=O)N[C@@H](CCC(=O)O)C(=O)N[C@@H](C)C(=O)N[C@@H](C)C(=O)N[C@@](C)(CCCCN)C(=O)N[C@@H](CCC(=O)O)C(=O)N[C@@](C)(Cc1ccccc1)C(=O)N[C@H](C(=O)N[C@@H](C)C(=O)N[C@@](C)(Cc1ccccc1)C(=O)N[C@H](C(=O)N[C@H](C(=O)N[C@@](C)(CCCCN)C(=O)NCC(=O)NCC(N)=O)C(C)C)C(C)C)[C@@H](C)CC)C(C)C)[C@@H](C)O)C(=O)O
B5: SEQ ID NO 92 (peptide)
peptide: H[Aib]EGS[αMeF]TK([γGlu-Palmitoyl])DV[αMeS]S[αMeF]LEGEAA[αMeK]E[αMeF]IA[αMeF]VV[αMeK]GG-NH2
modifications: N-terminus assumed
SMILES: CCCCCCCCCCCCCCCC(=O)N[C@@H](CCC(=O)NCCCC[C@H](NC(=O)[C@@H](NC(=O)[C@](C)(Cc1ccccc1)NC(=O)[C@H](CO)NC(=O)CNC(=O)[C@H](CCC(=O)O)NC(=O)C(C)(C)NC(=O)[C@@H](N)Cc1c[nH]cn1)[C@@H](C)O)C(=O)N[C@@H](CC(=O)O)C(=O)N[C@H](C(=O)N[C@@](C)(CO)C(=O)N[C@@H](CO)C(=O)N[C@@](C)(Cc1ccccc1)C(=O)N[C@@H](CC(C)C)C(=O)N[C@@H](CCC(=O)O)C(=O)NCC(=O)N[C@@H](CCC(=O)O)C(=O)N[C@@H](C)C(=O)N[C@@H](C)C(=O)N[C@@](C)(CCCCN)C(=O)N[C@@H](CCC(=O)O)C(=O)N[C@@](C)(Cc1ccccc1)C(=O)N[C@H](C(=O)N[C@@H](C)C(=O)N[C@@](C)(Cc1ccccc1)C(=O)N[C@H](C(=O)N[C@H](C(=O)N[C@@](C)(CCCCN)C(=O)NCC(=O)NCC(N)=O)C(C)C)C(C)C)[C@@H](C)CC)C(C)C)C(=O)O
B6: SEQ ID NO 90 (peptide)
peptide: H[Aib]EGS[αMeF]TSDK([γGlu-Palmitoyl])[αMeS]S[αMeF]LEGEAA[αMeK]E[αMeF]IA[αMeF]VV[αMeK]GG-NH2
modifications: N-terminus assumed
SMILES: CCCCCCCCCCCCCCCC(=O)N[C@@H](CCC(=O)NCCCC[C@H](NC(=O)[C@H](CC(=O)O)NC(=O)[C@H](CO)NC(=O)[C@@H](NC(=O)[C@](C)(Cc1ccccc1)NC(=O)[C@H](CO)NC(=O)CNC(=O)[C@H](CCC(=O)O)NC(=O)C(C)(C)NC(=O)[C@@H](N)Cc1c[nH]cn1)[C@@H](C)O)C(=O)N[C@@](C)(CO)C(=O)N[C@@H](CO)C(=O)N[C@@](C)(Cc1ccccc1)C(=O)N[C@@H](CC(C)C)C(=O)N[C@@H](CCC(=O)O)C(=O)NCC(=O)N[C@@H](CCC(=O)O)C(=O)N[C@@H](C)C(=O)N[C@@H](C)C(=O)N[C@@](C)(CCCCN)C(=O)N[C@@H](CCC(=O)O)C(=O)N[C@@](C)(Cc1ccccc1)C(=O)N[C@H](C(=O)N[C@@H](C)C(=O)N[C@@](C)(Cc1ccccc1)C(=O)N[C@H](C(=O)N[C@H](C(=O)N[C@@](C)(CCCCN)C(=O)NCC(=O)NCC(N)=O)C(C)C)C(C)C)[C@@H](C)CC)C(=O)O

Target: T1, glucose-dependent insulinotropic …
Experiment: cell-based or functional assay

cAMP Primary assay EC50 GIP-R [nM] | cAMP Primary assay EC50 GIP-R (2nd) [nM] | Binder
28 | 28 | B1
28 | 28 | B2
28 | 28 | B3
28 | 28 | B4
28 | 28 | B5
28 | 28 | B6

Target: glucagon receptor (GCGR) (human, UniProt P47871 26-477)
Experiment: cell-based or functional assay

Sequence of glucagon receptor (GCGR) (P47871 26-477): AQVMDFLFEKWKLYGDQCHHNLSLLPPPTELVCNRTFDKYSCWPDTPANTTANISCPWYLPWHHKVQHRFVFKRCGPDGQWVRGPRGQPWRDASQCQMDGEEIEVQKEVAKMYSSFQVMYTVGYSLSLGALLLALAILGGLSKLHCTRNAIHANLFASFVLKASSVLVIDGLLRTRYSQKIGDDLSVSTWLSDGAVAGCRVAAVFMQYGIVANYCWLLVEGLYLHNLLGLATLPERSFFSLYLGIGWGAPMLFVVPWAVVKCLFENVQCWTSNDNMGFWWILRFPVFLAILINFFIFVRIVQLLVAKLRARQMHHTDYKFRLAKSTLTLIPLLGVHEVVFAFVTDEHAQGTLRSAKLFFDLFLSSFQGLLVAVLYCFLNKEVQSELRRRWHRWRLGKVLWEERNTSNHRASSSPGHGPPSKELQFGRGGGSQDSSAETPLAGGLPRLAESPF

cAMP Primary assay EC50 Gluc-R [nM] | cAMP Primary assay EC50 Gluc-R (2nd) [nM] | Binder
28 | 28 | B1
28 | 28 | B2
28 | 28 | B3
28 | 28 | B4
28 | 28 | B5
28 | 28 | B6

Target: GLP-1 receptor (GLP-1R) (human, UniProt P43220 24-463)
Experiment: cell-based or functional assay

cAMP Mean pM GLP-1R [pM] | cAMP Primary assay EC50 GLP-1R n1 [nM] | cAMP Primary assay EC50 GLP-1R n2 [nM] | Binder
24 | 0.021 | 0.027 | B1
27600 | 28 | 28 | B2
228 | 0.14 | 0.32 | B3
224 | 0.26 | 0.19 | B4
423 | 0.45 | 0.39 | B5
0.7 | 0.00068 | 0.00079 | B6
